B1: P470 (peptide)
peptide: HSDAVFTEQYTXXRXQVAAXXYLQSIXXGGPSSGAPPPS
modifications: C6-HSDAVFTEQY(OMe)TOrnK(CO(CH2)2SPEG20K)RAibQVAAAibOrnYLQSIOrnOrnGGPSSGAPPPS-NH2
B2: P495 (peptide)
peptide: HSDAVFTEQYTXLRXQVAAXXYLQXIXXGGPSSGAPPPC
modifications: C6-HSDAVFTEQY(OMe)TOrnLRAibQVAAAibOrnYLQK(CO(CH2)2SPEG20K)IOrnOrnGGPSSGAPPPC(PEG20K)-NH2
B3: P492 (peptide)
peptide: HSDAVFTEQYTXLRXQVAXXXYLQSIXXGGPSSGAPPPC
modifications: C6-HSDAVFTEQY(OMe)TOrnLRAibQVAK(CO(CH2)2SPEG20K)AibOrnYLQSIOrnOrnGGPSSGAPPPC(PEG20K)-NH2
B4: P529 (peptide)
peptide: HSDAVFTEQYTXLRXQVAAXXYLQSIXXGGPSSGAPPPS
modifications: not fully specified; C6-HSDAVFTEQY(OMe)TOrnLRK(WPEG40K)QVAAAibOrnYLQSIOrnOrnGGPSSGAPPPS-NH2
B5: P497 (peptide)
peptide: HSDAVFTEQYTXLRXQVAAXXYLQSXXXGGPSSGAPPPC
modifications: C6-HSDAVFTEQY(OMe)TOrnLRAibQVAAAibOrnYLQSK(CO(CH2)2SPEG20K)OrnOrnGGPSSGAPPPC(PEG20K)-NH2
B6: P454 (peptide)
peptide: HSDAVFTEQYTXLRXQVAAXXYLQSIXXXGGPSSGAPPPS
modifications: not fully specified; C6-HSDAVFTEQY(OMe)TOrnLRAibQVAAAibOrnYLQSIOrnK(WPEG40K)OrnGGPSSGAPPPS-NH2
B7: P505 (peptide)
peptide: HSDAVFTEQYTXLRXQVAAXXYLQSIXCXGGPSSGAPPPC
modifications: C6-HSDAVFTEQY(OMe)TOrnLRAibQVAAAibOrnYLQSIOrnC(PEG20K)OrnGGPSSGAPPPC(PEG20K)-NH2
B8: P499 (peptide)
peptide: HSDAVFTEQYTXLRXQVAAXXYLQSIXXXGGPSSGAPPPC
modifications: C6-HSDAVFTEQY(OMe)TOrnLRAibQVAAAibOrnYLQSIOrnK(CO(CH2)2SPEG20K)OrnGGPSSGAPPPC(PEG20K)-NH2
B9: P517 (peptide)
peptide: HSDAVFTEQYTXLRXQLAXXXYLQXIXXGGPSSGAPPPCC
modifications: C6-HSDAVFTEQY(OMe)TOrnLRAibQLAAbuAibOrnYLQAibIOrnOrnGGPSSGAPPPC(PEG20K)C(PEG20K)-NH2
B10: P519 (peptide)
peptide: HSDAVFTEQYTXLRXQLAAXXYXQXIXXGGPSSGAPPPCC
modifications: C6-HSDAVFTEQY(OMe)TOrnLRAibQLAAAibOrnYAibQAibIOrnOrnGGPSSGAPPPC(PEG20K)C(PEG20K)-NH2
B11: P513 (peptide)
peptide: HSDAVFTEQYTXLRXQLAAXXYXQSIXXGGPSSGAPPPCC
modifications: C6-HSDAVFTEQY(OMe)TOrnLRAibQLAAAibOrnYAibQSIOrnOrnGGPSSGAPPPC(PEG20K)C(PEG20K)-NH2
B12: P521 (peptide)
peptide: HSDAVFTEQYTXLRXQLAXXXYXQSIXXGGPSSGAPPPCC
modifications: C6-HSDAVFTEQY(OMe)TOrnLRAibQLAAbuAibOrnYAibQSIOrnOrnGGPSSGAPPPC(PEG20K)C(PEG20K)-NH2
B13: P523 (peptide)
peptide: HSDAVFTEQYTXLRXQLAXXXYLQSIXXGGPSSGAPPPCC
modifications: C6-HSDAVFTEQY(OMe)TOrnLRAibQLAAbuAibOrnYLQSIOrnOrnGGPSSGAPPPC(PEG20K)C(PEG20K)-NH2
B14: P525 (peptide)
peptide: HSDAVFTEQYTXLRXQLAXXXYXQXIXXGGPSSGAPPPCC
modifications: C6-HSDAVFTEQY(OMe)TOrnLRAibQLAAbuAibOrnYAibQAibIOrnOrnGGPSSGAPPPC(PEG20K)C(PEG20K)-NH2

Legend:
human VPAC2 receptor [1] = target: T1, human VPAC2 receptor (human, UniProt P41587 24-438); experiment: filter binding, VPAC2 cell membranes, displacement of 125I-VIP
T1 construct: whole, on cells; CHO-S cell line stably expressing human VPAC2 (cAMP assays)
T1 sequence (looked up): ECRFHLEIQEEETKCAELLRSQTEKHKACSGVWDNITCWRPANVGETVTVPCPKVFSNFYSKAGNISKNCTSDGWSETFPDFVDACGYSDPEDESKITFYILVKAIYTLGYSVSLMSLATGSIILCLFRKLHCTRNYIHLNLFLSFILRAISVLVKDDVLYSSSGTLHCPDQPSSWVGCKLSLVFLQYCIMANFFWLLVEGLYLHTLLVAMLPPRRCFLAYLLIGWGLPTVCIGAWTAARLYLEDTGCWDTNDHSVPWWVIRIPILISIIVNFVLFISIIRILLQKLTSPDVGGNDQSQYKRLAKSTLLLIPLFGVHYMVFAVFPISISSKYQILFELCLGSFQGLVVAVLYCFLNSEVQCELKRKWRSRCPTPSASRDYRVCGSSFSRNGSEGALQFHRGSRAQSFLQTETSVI
Procedure: Binding assays: Membrane prepared from a stable VPAC2 cell line (see Example 3) or from cells transiently transfected with human VPAC1 or PAC1 are used.
The assay plate is filled with 25 μL assay buffer, 25 μL membranes (2.5 μg) suspended in assay buffer, 25 μL agonist in assay buffer, and 25 μL tracer (about 40000 cpm) in assay buffer. The filled plate is incubated for 1 hour with shaking.
The transfer from assay plate to filter plate is conducted. The blocking buffer is aspirated by vacuum filtration and washed two times with flush buffer. 90 μL is transferred from the assay plate to the filter plate. The 90 μL transferred from assay plate is aspirated and washed three times with 200 μL flush buffer. The plastic support is removed. It is dried for 1 hour at 60° C. 30 μL Microscint is added. The count is performed.

human VPAC2 receptor [2] = target: T1, human VPAC2 receptor; experiment: cell-based or functional assay
rat VPAC2 receptor = target: T2, rat VPAC2 receptor (rat, UniProt P35000 23-437); experiment: cell-based or functional assay
T2 sequence (looked up): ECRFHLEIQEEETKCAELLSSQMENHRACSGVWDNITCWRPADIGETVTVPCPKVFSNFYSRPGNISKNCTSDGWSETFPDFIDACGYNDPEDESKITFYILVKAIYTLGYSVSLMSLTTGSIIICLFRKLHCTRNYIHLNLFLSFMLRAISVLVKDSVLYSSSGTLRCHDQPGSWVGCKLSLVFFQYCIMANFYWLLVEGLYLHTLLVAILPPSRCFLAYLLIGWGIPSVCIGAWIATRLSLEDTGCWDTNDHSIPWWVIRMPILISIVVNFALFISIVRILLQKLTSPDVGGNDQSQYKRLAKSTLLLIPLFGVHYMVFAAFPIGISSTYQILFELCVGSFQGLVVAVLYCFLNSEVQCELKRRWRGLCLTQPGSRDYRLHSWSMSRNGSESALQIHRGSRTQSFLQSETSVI

rat VPAC1 receptor = target: T3, rat VPAC1 receptor (rat, UniProt P30083 31-459); experiment: cell-based or functional assay
T3 sequence (looked up): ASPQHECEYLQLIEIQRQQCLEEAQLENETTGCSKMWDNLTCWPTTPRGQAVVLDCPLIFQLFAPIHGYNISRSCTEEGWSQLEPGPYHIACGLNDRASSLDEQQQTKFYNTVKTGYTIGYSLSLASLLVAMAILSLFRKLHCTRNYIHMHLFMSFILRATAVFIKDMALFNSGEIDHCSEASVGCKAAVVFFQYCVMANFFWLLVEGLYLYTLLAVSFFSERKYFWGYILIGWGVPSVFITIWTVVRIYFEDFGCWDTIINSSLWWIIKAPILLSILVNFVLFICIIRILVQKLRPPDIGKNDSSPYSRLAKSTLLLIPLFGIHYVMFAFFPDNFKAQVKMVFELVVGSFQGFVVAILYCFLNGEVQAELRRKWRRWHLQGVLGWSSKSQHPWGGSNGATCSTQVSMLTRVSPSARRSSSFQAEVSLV

Binder | IC50 (human VPAC2 receptor [1]) [nM] | Human VPAC2 Receptor: Alphascreen (EC50; nM) (human VPAC2 receptor [2]) [nM] | Rat VPAC2 Receptor: DiscoveRx: (EC50; nM) (rat VPAC2 receptor) [nM] | Rat VPAC1 Receptor: DiscoveRx: (EC50; nM) (rat VPAC1 receptor) [nM] | Human VPAC2 Receptor: DiscoveRx (EC50; nM) (human VPAC2 receptor [2]) [nM]
B1 | 263 | 83.3 | 111 | > 1000 | 
B2 | 142 | 117 |  |  | 
HSDAVFTEQYTXLRXQVAAXXYLQXIXXGGPSSGAPPPC (C6-HSDAVFTEQY(OMe)TOrnLRAibQVAAAibOrnYLQAibIOrnOrnGGPSSGAPPPC(PEG40K)-NH2) [P509] | 11.2 | 13 | 28.2 | 328 | 
HSDAVFTEQYTXLRXQVAAXXYLQSIXXGGPSSGAPPPS (C6-HSDAVFTEQY(OMe)TOrnLRAibQVAAAibK(CO(CH2)2SPEG20K)YLQSIOrnOrnGGPSSGAPPPS-NH2) [P473] | 256 | 26.5 | 25.5 | > 1000 | 
HSDAVFTEQYTXLRXQCAXXXYLQXIXXGGPSSGAPPPS (C6-HSDAVFTEQY(OMe)TOrnLRAibQC(PEG40K)AAbuAibOrnYLQAibIOrnOrnGGPSSGAPPPS-NH2) [P545] | 79.9 | 45 | 99.5 | 380 | 
B3 | 156 | 510 | 963 | > 4000 | 
HSDAVFTEQYTXLRXQVAAXXYLQSIXXGGPSSGAPPPS (C6-HSDAVFTEQY(OMe)TOrnLRAibQVAAAibK(W-PEG40K)YLQSIOrnOrnGGPSSGAPPPS-NH2) [P410] | 264 | 129 | 318 | > 1000 | 
HSDAVFTEQYTXLRXQXAAXXYLQSIXXGGPSSGAPPPS (C6-HSDAVFTEQY(OMe)TOrnLRAibQK(WPEG40K)AAAibOrnYLQSIOrnOrnGGPSSGAPPPS-NH2) [P533] |  | 2380 |  |  | 
B4 | 192 | 170 | 199 | 1180 | 
B5 | 146 | 176 | 345 | > 1000 | 
HSDAVFTEQYTXLRXQLAXXXYLQXCXXGGPSSGAPPPS (C6-HSDAVFTEQY(OMe)TOrnLRAibQLAAbuAibOrnYLQAibC(PEG40K)OrnOrnGGPSSGAPPPS-NH2) [P541] | 59.8 | 45.8 | 102 | 665 | 
HSDAVFTEQYTXLRXQVAXXXYLQXIXXGGPSSGAPPPC (C6-HSDAVFTEQY(OMe)TOrnLRAibQVAAbuAibOrnYLQAibIOrnOrnGGPSSGAPPPC(PEG40K)-NH2) [P511] | 7.2 | 7.6 | 13.9 | 61.9 | 
HSDAVFTEQYTXLRXQVAAXXYLCSIXXGGPSSGAPPPC (C6-HSDAVFTEQY(OMe)TOrnLRAibQVAAAibOrnYLC(PEG20K)SIOrnOrnGGPSSGAPPPC(PEG20K)-NH2) [P501] | 111 | 131 | 272 | > 1000 | 
HSDAVFTEQYTXLRXQVAAXXYLQSXXXGGPSSGAPPPS (C6-HSDAVFTEQY(OMe)TOrnLRAibQVAAAibOrnYLQSK(WPEG40K)OrnOrnGGPSSGAPPPS-NH2) [P535] | 145 | 98.4 | 318 | > 1000 | 
HSDAVFTEQYTXLRXQLAXXXYLQSCXXGGPSSGAPPPS (C6-HSDAVFTEQY(OMe)TOrnLRAibQLAAbuAibOrnYLQSC(PEG40K)OrnOrnGGPSSGAPPPS-NH2) [P543] | 56.3 | 84.2 | 101 | 355 | 8.9
HSDAVFTEQYTXLRXQVAAXXYLQSCXXGGPSSGAPPPC (C6-HSDAVFTEQY(OMe)TOrnLRAibQVAAAibOrnYLQSC(PEG20K)OrnOrnGGPSSGAPPPC(PEG20K)-NH2) [P503] | 41.5 | 147 | 520 | > 4000 | 
HSDAVFTEQYTXLRXQVCAXXYLQSIXXGGPSSGAPPPS (C6-HSDAVFTEQY(OMe)TOrnLRAibQVC(PEG40K)AAibOrnYLQSIOrnOrnGGPSSGAPPPS-NH2) [P478] | 30 | 49.9 | 120 | 2050 | 
B6 | 36.6 | 59.9 | 79.6 | 1230 | 
B7 | 26.1 | 40.5 | 42.6 | 639 | 
B8 | 34 | 57.7 | 68.2 | 804 | 
B9 | 3.7 | 7.5 | 10 | 92.4 | 
B10 | 51.6 | 30.3 |  |  | 
B11 | 50.5 | 28.9 |  |  | 
B12 | 67.1 | 22.1 | 33.1 | 602 | 
B13 | 4.8 | 5.8 | 5.3 | 20.4 | 
B14 | 41.8 | 25 | 44 | 1140 | 

Source: patent US20080234198A1 (Eli Lilly, published 2008)
